According to US20110129459A1 (Chugai, published 2011):
Several values for one entry are separate records, joined by “and”; a condition that tells them apart may be missing. Equal entries are not always repeated. Where two headings read alike, the source gives them in different places. Each block holds one binder with its values, some of them ahead of it.

Tests used:
[1] = target: T1, soluble human FcRn (FcRn extracellular domain / beta2-microglobulin complex) (human, UniProt P55899 24-290; P61769 21-119); test: SPR, Biacore 3000; antibody captured on chip, soluble human FcRn as analyte, steady state affinity, pH 6.0
T1 construct: The expression constructs contain the signal regions (FcRn Met1-Leu290; beta2-microglobulin Met1-Met119); also called hFcRn
Description: The binding to human FcRn was assessed using Biacore 3000. An antibody was bound to Protein L or rabbit anti-human IgG Kappa chain antibody immobilized onto a sensor chip, human FcRn was added as an analyte for interaction with the antibody, and the affinity (KD) was calculated from the amount of bound human FcRn. Specifically, Protein L was immobilized onto sensor chip CM5 (BIACORE) by the amine coupling method using 50 mM Na-phosphate buffer (pH 6.0) containing 150 mM NaCl as the running buffer. Then, an antibody was diluted with the running buffer containing 0.02% Tween20, and injected and allowed to bind to the chip. Human FcRn was then injected to assess the binding activity of the antibody to the human FcRn.
The affinity was calculated using BIAevaluation software. The obtained sensorgram was used to calculate the amount of hFcRn bound to the antibody immediately before the end of human FcRn injection. This was fitted by the steady state affinity method to calculate the affinity of human FcRn for the antibody.

[2] = target: T2, rhNR10 (recombinant human NR10) (human, UniProt Q8NI17 20-519, limits assumed); test: SPR, Biacore T100; antibody captured on Protein A, rhNR10 as analyte
T2 construct: also called IL-31 receptor; IL31RA
T2 sequence: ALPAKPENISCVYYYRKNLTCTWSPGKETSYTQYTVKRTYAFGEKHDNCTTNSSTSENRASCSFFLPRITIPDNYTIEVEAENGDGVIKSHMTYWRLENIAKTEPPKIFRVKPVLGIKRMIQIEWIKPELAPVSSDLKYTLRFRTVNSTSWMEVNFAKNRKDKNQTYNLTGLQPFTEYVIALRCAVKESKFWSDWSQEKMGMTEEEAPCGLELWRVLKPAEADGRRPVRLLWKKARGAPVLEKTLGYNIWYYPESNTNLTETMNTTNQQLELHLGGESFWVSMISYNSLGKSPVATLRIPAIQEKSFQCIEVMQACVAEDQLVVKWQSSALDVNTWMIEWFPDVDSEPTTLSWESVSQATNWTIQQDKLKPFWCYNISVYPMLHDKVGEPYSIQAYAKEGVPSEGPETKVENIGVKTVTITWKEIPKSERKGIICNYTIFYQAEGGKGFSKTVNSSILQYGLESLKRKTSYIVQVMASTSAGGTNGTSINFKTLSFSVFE
Description: (§1) Kinetic analysis of the antigen-antibody reaction was carried out using Biacore T100 (GE Healthcare Biosciences). The antigen-antibody interaction was measured by immobilizing rec-Protein A (hereinafter Protein A) (ZYMED) onto a sensor chip, capturing an antibody on the immobilized Protein A, and then reacting the antigen as an analyte. Various concentrations of rhNR10 were used as the antigen. The kinetic parameters, association rate constant kₐ (1/Ms) and dissociation rate constant kd (1/s), were calculated from the sensorgrams obtained by the measurement. Then, KD (M) was determined based on the rate constants. Each parameter was determined using Biacore T100 Evaluation Software version 1.1 (GE Healthcare Biosciences).
(§2) The running buffer used was HBS-EP+. Each antibody was prepared at 0.25 μg/ml, or prepared so that about 100 RU would bind to Protein A. rhNR10 used as an analyte was prepared at 0, 38.5, 77.0, and 154 nM, or at 0, 19.25, and 77.01 nM using HBS-EP+. In the measurement, first, the antibody solution was captured on Protein A, and an analyte solution was reacted at a flow rate of 20 μL/min for three minutes. Then, the solution was switched to HBS-EP+, and the dissociation phase was measured for five minutes. After measurement of the dissociation phase, the sensor chip was regenerated by washing with 10 mM glycine-HCl (pH 1.5). The obtained sensorgrams were kinetically analyzed using the Biacore-specific data analysis software, Biacore T100 Evaluation Software Version 1.1.

[3] = target: T2, rhNR10 (recombinant human NR10); test: as above; remark: listed apart in the source
Description: as §1, §2

[4] = target: T2, rhNR10 (recombinant human NR10); test: as above; remark: listed apart in the source
Description: as §1, §2

[5] = target: T3, cytoplasmic domain-lacking human NR10 on CHO cells (hNR10-expressing CHO cells) (human, UniProt Q8NI17 20-553); test: FMAT competition on hNR10-expressing CHO cells: antibody titrated against FMAT Blue-labeled hIL-31; FL1 = cell-bound labeled hIL-31
T3 construct: also called NR10-expressing cells
T3 sequence: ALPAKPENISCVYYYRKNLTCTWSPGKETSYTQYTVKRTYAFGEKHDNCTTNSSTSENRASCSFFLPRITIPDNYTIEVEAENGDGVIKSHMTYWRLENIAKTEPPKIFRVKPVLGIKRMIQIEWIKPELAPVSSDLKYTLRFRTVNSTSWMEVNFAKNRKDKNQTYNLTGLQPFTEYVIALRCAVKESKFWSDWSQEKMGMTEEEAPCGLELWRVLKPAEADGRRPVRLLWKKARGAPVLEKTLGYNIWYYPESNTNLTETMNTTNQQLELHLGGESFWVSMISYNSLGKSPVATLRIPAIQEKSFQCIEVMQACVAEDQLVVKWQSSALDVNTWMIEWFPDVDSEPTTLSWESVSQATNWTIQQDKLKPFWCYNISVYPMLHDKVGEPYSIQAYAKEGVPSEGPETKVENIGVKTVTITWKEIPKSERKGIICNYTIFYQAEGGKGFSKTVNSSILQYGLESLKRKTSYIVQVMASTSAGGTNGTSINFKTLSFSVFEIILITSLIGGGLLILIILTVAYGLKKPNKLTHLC
Description: Human IL-31 (R&D Systems) was labeled with FMAT Blue Monofunctional Reactive Dye (Applied Biosystems). 100 μl of hIL-31 prepared at 0.5 mg/ml using 50 mM sodium phosphate buffer (pH 8.0) was mixed with 5.25 μl of 25 nmoles FMAT Blue dissolved in DMSO (Junsei). After vortexing, the mixture was allowed to stand at room temperature for 15 minutes. The FMAT Blue-conjugating reaction with hIL-31 was terminated by adding 5 μl of 1 M Tris-HCl (pH 7.4) and 1.1 μl of 10% Tween20, and then FMAT Blue-labeled hIL-31 and unreacted FMAT Blue were separated by gel filtration using Superdex 75 (GE Healthcare, 17-0771-01) column with 0.1% Tween20/PBS developing solution.
(§3) Antibodies were assessed for the activity of inhibiting the IL-31/NR10 binding by using hNR10-expressing CHO cells as described below. The chimeric NS22 antibody and NS22_H0L0 (H chain, H0-SKSC/SEQ ID NO: 54; L chain, L0/SEQ ID NO: 56) were diluted at an appropriate concentration using Assay buffer (10 mM HEPES, 140 mM NaCl, 2.5 mM CaCl₂, 3 mM MgCl₂, 2% FBS, 0.01% NaN₃, pH7.4), and further eight serial dilutions were prepared at a common dilution ration of 2. The dilutions were added at 40 μl/well to plates (96-Well FMAT Plates, Applied Biosystems). Then, FMAT Blue-labeled hIL-31 was diluted 400 times with Assay buffer, and added at 20 μl/well. Finally, a cell suspension adjusted to 2.5×10⁵ cells/ml using Assay buffer was added at 40 μl/well (final 1×10⁴ cells/well). Two hours after addition of cells, the fluorescence (FL1) was measured using the 8200 Cellular Detection System (Applied Biosystems).

[6] = target: T3, cytoplasmic domain-lacking human NR10 …; test: FMAT competition on hNR10-expressing CHO cells: antibody titrated against FMAT Blue-labeled hIL-31; FL1 = cell-bound labeled hIL-31; mean±S.D. (n=3)
Description: as §3
Each variant was tested for the activity of inhibiting the hIL-31/hNR10 binding by using FMAT. The test was carried out according to the method as described in Example 4.

[7] = target: T2, rhNR10 (recombinant human NR10); test: SPR, Biacore T100; antibody captured on Protein A, rhNR10 as analyte; remark: listed apart in the source
Description: as §1, §2

[8] = target: T2, rhNR10 (recombinant human NR10); test: as above; remark: listed apart in the source
Description: as §1, §2

[9] = target: T2, rhNR10 (recombinant human NR10); test: as above; remark: listed apart in the source
Description: as §1, §2

- Kd [1]: 1170 nM
- fold binding activity relative to huPM1-IgG1 [1]: ~1.4 fold
B1: huPM1-M58 (humanized anti-IL-6 receptor antibody with constant region M58) (antibody)
heavy: QVQLQESGPGLVRPSQTLSLTCTVSGYSITSDHAWSWVRQPPGRGLEWIGYISYSGITTYNPSLKSRVTMLRDTSKNQFSLRLSSVTAADTAVYYCARSLARTTAMDYWGQGSLVTVSSASTKGPSVFPLAPSSKSTSGGTAALGCLVKDYFPEPVTVSWNSGALTSGVHTFPAVLQSSGLYSLSSVVTVPSSNFGTQTYTCNVDHKPSNTKVDKTVERKSCVECPPCPAPPVAGPSVFLFPPKPKDTLMISRTPEVTCVVVDVSQEDPEVQFNWYVDGVEVHNAKTKPREEQFNSTFRVVSVLTVVHQDWLNGKEYKCKVSNKGLPAPIEKTISKTKGQPREPQVYTLPPSQEEMTKNQVSLTCLVKGFYPSDIAVEWESNGQPENNYKTTPPMLDSDGSFFLYSKLTVDKSRWQEGNVFSCSVMHEALHNHYTQKSLSLSP
light: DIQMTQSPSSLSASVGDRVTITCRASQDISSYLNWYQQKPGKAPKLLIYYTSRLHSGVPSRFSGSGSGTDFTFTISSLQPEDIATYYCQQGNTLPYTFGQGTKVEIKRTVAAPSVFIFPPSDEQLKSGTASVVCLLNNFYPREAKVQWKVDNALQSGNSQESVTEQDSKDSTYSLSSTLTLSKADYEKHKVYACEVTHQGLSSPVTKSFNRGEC

- Kd [2]: 3.2 nM and 5.1 nM
- koff [2]: 0.00062 s⁻¹ and 0.00074 s⁻¹
- kon [2]: 190000 M⁻¹ s⁻¹ and 150000 M⁻¹ s⁻¹
- Kd [3]: 3.2 nM
- koff [3]: 0.00091 s⁻¹
- kon [3]: 290000 M⁻¹ s⁻¹
- Kd [4]: 3.3 nM
- koff [4]: 0.0012 s⁻¹
- kon [4]: 370000 M⁻¹ s⁻¹
- IC50 (read off the curve) [5]: ~0.1 mg/L
- IC50 (read off the curve) [6]: ~0.1 mg/L
B2: humanized NS22 H0L0 with constant region SKSC (H0L0-SKSC) (antibody)
heavy: QVQLVQSGAEVKKPGASVKVSCKASGYTFTGYIMNWVRQAPGQGLEWMGLINPYNGGTSYNQKFKGRVTITADESTSTAYMELSSLRSEDTAVYYCARDGYDDGPYTMDYWGQGTLVTVSSASTKGPSVFPLAPSSKSTSESTAALGCLVKDYFPEPVTVSWNSGALTSGVHTFPAVLQSSGLYSLSSVVTVPSSNFGTQTYTCNVDHKPSNTKVDKTVERKSCVECPPCPAPPVAGPSVFLFPPKPKDTLMISRTPEVTCVVVDVSHEDPEVQFNWYVDGVEVHNAKTKPREEQFNSTFRVVSVLTVVHQDWLNGKEYKCKVSNKGLPAPIEKTISKTKGQPREPQVYTLPPSREEMTKNQVSLTCLVKGFYPSDIAVEWESNGQPENNYKTTPPMLDSDGSFFLYSKLTVDKSRWQQGNVFSCSVMHEALHNHYTQKSLSLSPGK
light: DIQMTQSPSSLSASVGDRVTITCRTSENIYSFLAWYQQKPGKAPKLLIYNAKTLAKGVPSRFSGSGSGTDFTLTISSLQPEDFATYYCQHHYESPLTFGGGTKVEIKRTVAAPSVFIFPPSDEQLKSGTASVVCLLNNFYPREAKVQWKVDNALQSGNSQESVTEQDSKDSTYSLSSTLTLSKADYEKHKVYACEVTHQGLSSPVTKSFNRGEC

- Kd [7]: 4.8 nM
- koff [7]: 0.00069 s⁻¹
- kon [7]: 140000 M⁻¹ s⁻¹
- Kd [4]: 4.8 nM
- koff [4]: 0.00087 s⁻¹
- kon [4]: 180000 M⁻¹ s⁻¹
- Kd [8]: 4.8 nM
- koff [8]: 0.00078 s⁻¹
- kon [8]: 160000 M⁻¹ s⁻¹
- Kd [9]: 4.2 nM
- koff [9]: 0.00088 s⁻¹
- kon [9]: 210000 M⁻¹ s⁻¹
- Kd [1]: 910 nM
B3: H0L0-M58 (antibody)
heavy: QVQLVQSGAEVKKPGASVKVSCKASGYTFTGYIMNWVRQAPGQGLEWMGLINPYNGGTSYNQKFKGRVTITADESTSTAYMELSSLRSEDTAVYYCARDGYDDGPYTMDYWGQGTLVTVSSASTKGPSVFPLAPSSKSTSGGTAALGCLVKDYFPEPVTVSWNSGALTSGVHTFPAVLQSSGLYSLSSVVTVPSSNFGTQTYTCNVDHKPSNTKVDKTVERKSCVECPPCPAPPVAGPSVFLFPPKPKDTLMISRTPEVTCVVVDVSQEDPEVQFNWYVDGVEVHNAKTKPREEQFNSTFRVVSVLTVVHQDWLNGKEYKCKVSNKGLPAPIEKTISKTKGQPREPQVYTLPPSQEEMTKNQVSLTCLVKGFYPSDIAVEWESNGQPENNYKTTPPMLDSDGSFFLYSKLTVDKSRWQEGNVFSCSVMHEALHNHYTQKSLSLSP
light: B2 light
notes: also called H0L0 (H chain, H0-M58)

- binding result [5]: binds
B4: humanized NS22 H1L0 (H1-SKSC / L0) (antibody, V domains shown)
VH: QVQLVQSGAEVKKPGASVKVSCKASGYTFTGYIMNWVRQAPGQGLEWMGLINPYNGGTSYNQKFKGRVTITADKSTSTAYMELSSLRSEDTAVYYCARDGYDDGPYTMDYWGQGTLVTVSS
VL: DIQMTQSPSSLSASVGDRVTITCRTSENIYSFLAWYQQKPGKAPKLLIYNAKTLAKGVPSRFSGSGSGTDFTLTISSLQPEDFATYYCQHHYESPLTFGGGTKVEIKR
